Assay results taken from PMC11551953, “Probing Electrostatic and Hydrophobic Associative Interactions in Cells” (The Journal of Physical Chemistry. B, 2024).
Where no end group is shown, it is not given here.

Experiments:
[1] = biological target: GFP(KLL)4; experiment: other fluorescence titration; probe (1 μM) with BSA titrated up to 100 mg/mL (2 mM) in a 96-well plate; ratio of excitation at 405 nm/488 nm, emission 520 nm; 10 mM NaPi, 100 mM KCl, pH 7.4; room temperature; fitted to a Hill function; KD of BSA (+92e) with GFP(EEE)4 called apparent
[2] = biological target: GFP(ESE)4; experiment: as above
[3] = biological target: GFP(ESS)4; experiment: as above
[4] = biological target: GFP(EEE)4; experiment: as above
[5] = biological target: cationic and hydrophobic probes; experiment: as above
[6] = biological target: T1, wtBSA(-17e), bovine serum albumin (bovine, UniProt P02769 25-607); experiment: other fluorescence titration; BSA titrated to 1 uM probe (His-tag removed) in a 96-well plate; excitation ratio 405 nm/488 nm at 520 nm emission; 10 mM NaPi, 100 mM KCl, pH 7.4, room temperature; ratio against BSA concentration fitted to a Hill function (k = KD, n = Hill coefficient); errors are errors in the fits; settings: both partners purified
T1 construct: bovine serum albumin, wild type; also called wtBSA (−18e); BSA(-18e); source: bought: Sigma-Aldrich; further purified by repeated concentration on an Amicon 10 kD cutoff filter
T1 sequence (P02769 25-607): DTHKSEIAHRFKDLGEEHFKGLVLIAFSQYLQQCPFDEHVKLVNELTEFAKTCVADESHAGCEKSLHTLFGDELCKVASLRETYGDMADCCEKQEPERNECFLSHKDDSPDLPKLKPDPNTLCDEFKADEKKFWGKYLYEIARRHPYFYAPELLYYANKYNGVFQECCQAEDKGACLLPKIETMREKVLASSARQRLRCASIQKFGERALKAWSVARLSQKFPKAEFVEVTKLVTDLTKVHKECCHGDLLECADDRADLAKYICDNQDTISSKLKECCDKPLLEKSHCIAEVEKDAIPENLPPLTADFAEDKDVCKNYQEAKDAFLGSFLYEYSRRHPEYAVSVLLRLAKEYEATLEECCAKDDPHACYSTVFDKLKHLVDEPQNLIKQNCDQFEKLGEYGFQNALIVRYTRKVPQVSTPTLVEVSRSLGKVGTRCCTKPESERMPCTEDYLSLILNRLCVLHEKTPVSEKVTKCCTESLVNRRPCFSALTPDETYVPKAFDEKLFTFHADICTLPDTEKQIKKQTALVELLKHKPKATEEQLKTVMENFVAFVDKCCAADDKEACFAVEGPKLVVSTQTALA

Question: Which Kd [1] does the source give for “bovine serum albumin (BSA), wild type (from UniProt P02769 25-607) (natural protein)” here?
Answer: 100 to 200 µM

Question: What about the Kd [2] of the same molecule?
Answer: > 1000 µM

Question: And the Kd [3]?
Answer: > 1000 µM

Question: And the Kd [4]?
Answer: > 1000 µM

Question: What about the Kd [5] of the same molecule?
Answer: 100 to 200 µM

B1: GFP(KLK)4 (other)
chain: KLKKLKKLKKLK
modifications: also: fused to cpGFP reporter, not in chain
Question: How did the Kd [6] turn out when B1 was run?
Answer: 220 µM

B2: GFP(KKK)4 (other)
chain: KKKKKKKKKKKK
modifications: also: fused to cpGFP reporter, not in chain
Question: For B2, which Kd [6] is on record?
Answer: 170 µM

B3: GFP(KLL)4 (other)
chain: KLLKLLKLLKLL
modifications: also: fused to cpGFP reporter, not in chain
Question: With B3 as the molecule, how does the Kd [6] read?
Answer: 110 µM
